The target of this experiment is GST-Rac1A, active (GTPγs-bound), P34144. Description: pull-down (GST-Rac1A), immunoblot quantification. The conditions noted are these: chain shown with the change, mean ± SEM, n = 3, parent: 1.9% ± 0.9% SEM.

B1: GFP-WASP (Dictyostelium Wiskott-Aldrich syndrome protein, wild type) I173A; F179A (protein)
chain: MGSPTISDQEKSQVAFIAGSSSDIHSTTVARLYEGRQGRWEFMAVGIVSVVSNRVDKTNYIKVFDLKANYRIIFEQEIYDTFEFQKQRDFFFAFEGDSCVYGLSFADVTEAAEFYGQLLNCKQGNIGKTAAINPNTSSTKITASTPAPKVEKKKEKKGFMSKFFSSEEKDLEASAPTNAKHESHIGWDPENGFDIKNIPPDWRKLFQSAGIKKSELKNAETAQFIVNIIGEQMVGGSAPPPTQPGRSAPPAPPSSNQPGRSAPPPPPSVGKSAPPPPPPSHKTPAAPPSGGGAPPPPPPPPPPSSGPPPPPPPMASAPPSSGGGGASGGGRNDLLASIRSGASLKAVDKTNPLPDIQSLGNEGSRSLADTLAAAMANRRGGMREDDEEDDDDDDEWSDY
Take B1: the response (% binding to GTPγS-loaded Rac1A) was 0.1.

The values above are taken from paper PMC6926487.
